From PMC12560131

Experiments:
[1] = biological target: Adalimumab–pM440 complex (Mycoplasma genitalium) (UniProt P47523); test: SPR
[2] = biological target: Adalimumab–pM440 complex (Mycoplasma genitalium) (UniProt P47523); test: SPR; single-cycle kinetic titration of TNFα on Adalimumab or on the Adalimumab-pM440 complex
[3] = biological target: Adalimumab; test: SPR

Substance	fold decrease in affinity against Adalimumab without pM440 [1] [fold]	koff [1] [s⁻¹]	kon [1] [M⁻¹ s⁻¹]	Kd [2] [nM]	Kd [3] [nM]
TNFα (from UniProt P01375 1-233) (ligand)	3	0.00046	160000	2.94	–
protein M440 (from UniProt P47523 1-440) (domain or fragment)	–	–	–	–	< 0.15
